{
  "source": "paper PMC13577091",
  "key": {"[1]": {"target": "CcpA;HPr (Streptococcus pneumoniae D39?;Streptococcus pneumoniae D39) (UniProt A0A0H2ZQ65+A0A0H2ZP52)", "assay": "EMSA", "details": "Beyotime chemiluminescent EMSA kit, 5X binding buffer (composition and pH not stated), 10 ul, room temperature, 10 min then 20 min with labeled probe, 6% …"}, "[2]": {"target": "CcpA (Streptococcus pneumoniae D39?) (UniProt A0A0H2ZQ65)", "assay": "EMSA", "details": "Beyotime chemiluminescent EMSA kit, 5X binding buffer (composition and pH not stated), 10 ul, room temperature, 10 min then 20 min with labeled probe, 6% …"}},
  "data": [
    {"sequence": "TACACATCTGCTTCTAAAATATTGTTAGAAAACGATTTGACTGTCCTGATCAATTTGTCATGTTCTTATTTCATTTTACTATATTTTTGGTTCGCGGGAAGTCTACTAAGATACTTAAAGATGCAGATAGTGAAAAAAGGTGTAGACATTACCGTAAAAAAGTGATATAATCGTAAGATGTTCAATGTATAGGTGTTAATCATGAGTAGACGTTTTAA (double strand) [Pcps promoter probe]", "values": [
      {"measurement": "binding", "setting": "[1]", "value": "binds"},
      {"measurement": "binding", "setting": "[2]", "value": "binds"}
    ]}
  ]
}
